{
  "source": "IntAct's records for PubMed 22153509",
  "parents": {"B1": {"name": "Interleukin-5 receptor subunit alpha (Homo sapiens), Q01344-2 (parent)", "chain": "MIIVAHVLLILLGATEILQADLLPDEKISLLPPVNFTIKVTGLAQVLLQWKPNPDQEQRNVNLEYQVKINAPKEDDYETRITESKCVTILHKGFSASVRTILQNDHSLLASSWASAELHAPPGSPGTSIVNLTCTTNTTEDNYSRLRSYQVSLHCTWLVGTDAPEDTQYFLYYRYGSWTEECQEYSKDTLGRNIACWFPRTFILSKGRDWLAVLVNGSSKHSAIRPFDQLFALHAIDQINPPLNVTAEIEGTRLSIQWEKPVSAFPIHCFDYEVKIHNTRNGYLQIEKLMTNAFISIIDDLSKYDVQVRAAVSSMCREAGLWSEWSQPIYVGFSR"}},
  "data": [
    {"variants_of": "B1", "settings": "with il5_human IL5, P05113", "values": [
      {"variant": "MIIVAHVLLILLGATEILQADLLPDEKISLLPPVNFTIKVTGLAQVLLQWKPNPDQEQRNVNLEYQVKINAPKEDDYETRITEAKCVTILHKGFSASVRTILQNDHSLLASSWASAELHAPPGSPGTSIVNLTCTTNTTEDNYSRLRSYQVSLHCTWLVGTDAPEDTQYFLYYRYGSWTEECQEYSKDTLGRNIACWFPRTFILSKGRDWLAVLVNGSSKHSAIRPFDQLFALHAIDQINPPLNVTAEIEGTRLSIQWEKPVSAFPIHCFDYEVKIHNTRNGYLQIEKLMTNAFISIIDDLSKYDVQVRAAVSSMCREAGLWSEWSQPIYVGFSR", "note": "[S84A]", "effect of a mutation on the interaction": "decreasing interaction"},
      {"variant": "MIIVAHVLLILLGATEILQADLLPDEKISLLPPVNFTIKVTGLAQVLLQWKPNPDQEQRNVNLEYQVKINAPKEDDAETRITESKCVTILHKGFSASVRTILQNDHSLLASSWASAELHAPPGSPGTSIVNLTCTTNTTEDNYSRLRSYQVSLHCTWLVGTDAPEDTQYFLYYRYGSWTEECQEYSKDTLGRNIACWFPRTFILSKGRDWLAVLVNGSSKHSAIRPFDQLFALHAIDQINPPLNVTAEIEGTRLSIQWEKPVSAFPIHCFDYEVKIHNTRNGYLQIEKLMTNAFISIIDDLSKYDVQVRAAVSSMCREAGLWSEWSQPIYVGFSR", "note": "[Y77A]", "effect of a mutation on the interaction": "decreasing interaction"},
      {"variant": "MIIVAHVLLILLGATEILQADLLPDEKISLLPPVNFTIKVTGLAQVLLQWKPNPDQEQRNVNLEYQVKINAPKEDDYETRITESKCVTILHKGFSASVRTILQNDHSLLASSWASAELHAPPGSPGTSIVNLTCTTNTTEDNYSRLRSYQVSLHCTWLVGTDAPEDTQYFLYYRYGSWTEECQEYSKDTLGRNIACWFPRTFALSKGRDWLAVLVNGSSKHSAIRPFDQLFALHAIDQINPPLNVTAEIEGTRLSIQWEKPVSAFPIHCFDYEVKIHNTRNGYLQIEKLMTNAFISIIDDLSKYDVQVRAAVSSMCREAGLWSEWSQPIYVGFSR", "note": "[I203A]", "effect of a mutation on the interaction": "decreasing interaction"},
      {"variant": "MIIVAHVLLILLGATEILQADLLPDEKISLLPPVNFTIKVTGLAQVLLQWKPNPDQEQRNVNLEYQVKINAPKEEDYETRITESKCVTILHKGFSASVRTILQNDHSLLASSWASAELHAPPGSPGTSIVNLTCTTNTTEDNYSRLRSYQVSLHCTWLVGTDAPEDTQYFLYYRYGSWTEECQEYSKDTLGRNIACWFPRTFILSKGRDWLAVLVNGSSKHSAIRPFDQLFALHAIDQINPPLNVTAEIEGTRLSIQWEKPVSAFPIHCFDYEVKIHNTRNGYLQIEKLMTNAFISIIDDLSKYDVQVRAAVSSMCREAGLWSEWSQPIYVGFSR", "note": "[D75E]", "effect of a mutation on the interaction": "decreasing interaction"},
      {"variant": "MIIVAHVLLILLGATEILQADLLPDEKISLLPPVNFTIKVTGAAQVLLQWKPNPDQEQRNVNLEYQVKINAPKEDDYETRITESKCVTILHKGFSASVRTILQNDHSLLASSWASAELHAPPGSPGTSIVNLTCTTNTTEDNYSRLRSYQVSLHCTWLVGTDAPEDTQYFLYYRYGSWTEECQEYSKDTLGRNIACWFPRTFILSKGRDWLAVLVNGSSKHSAIRPFDQLFALHAIDQINPPLNVTAEIEGTRLSIQWEKPVSAFPIHCFDYEVKIHNTRNGYLQIEKLMTNAFISIIDDLSKYDVQVRAAVSSMCREAGLWSEWSQPIYVGFSR", "note": "[L43A]", "effect of a mutation on the interaction": "disrupting interaction"},
      {"variant": "MIIVAHVLLILLGATEILQADLLPDEKISLLPPVNFTIKVTGLAQVLLQWKPNPDQEQRNVNLEYQVKINAPKEDDYETRITESKCVTILHKGFSASVRTILQNDHSLLASSWASAELHAPPGSPGTSIVNLTCTTNTTEDNYSRLRSYQVSLHCTWLVGTDAPEDTQYFLYYRYGSATEECQEYSKDTLGRNIACWFPRTFILSKGRDWLAVLVNGSSKHSAIRPFDQLFALHAIDQINPPLNVTAEIEGTRLSIQWEKPVSAFPIHCFDYEVKIHNTRNGYLQIEKLMTNAFISIIDDLSKYDVQVRAAVSSMCREAGLWSEWSQPIYVGFSR", "note": "[W178A]", "effect of a mutation on the interaction": "decreasing interaction"},
      {"variant": "MIIVAHVLLILLGATEILQADLLPDEKISLLPPVNFTIKVTGLAQVLLQWKPNPDQEQRNVNLEYQVKINAPKEDDYPTRITESKCVTILHKGFSASVRTILQNDHSLLASSWASAELHAPPGSPGTSIVNLTCTTNTTEDNYSRLRSYQVSLHCTWLVGTDAPEDTQYFLYYRYGSWTEECQEYSKDTLGRNIACWFPRTFILSKGRDWLAVLVNGSSKHSAIRPFDQLFALHAIDQINPPLNVTAEIEGTRLSIQWEKPVSAFPIHCFDYEVKIHNTRNGYLQIEKLMTNAFISIIDDLSKYDVQVRAAVSSMCREAGLWSEWSQPIYVGFSR", "note": "[E78P]", "effect of a mutation on the interaction": "disrupting interaction"},
      {"variant": "MIIVAHVLLILLGATEILQADLLPDEKISLLPPVNFTIKVTGLAQVLLQWKPNPDQEQRNVNLEYQVKINAPKEDDYETRITESKCVTALHKGFSASVRTILQNDHSLLASSWASAELHAPPGSPGTSIVNLTCTTNTTEDNYSRLRSYQVSLHCTWLVGTDAPEDTQYFLYYRYGSWTEECQEYSKDTLGRNIACWFPRTFILSKGRDWLAVLVNGSSKHSAIRPFDQLFALHAIDQINPPLNVTAEIEGTRLSIQWEKPVSAFPIHCFDYEVKIHNTRNGYLQIEKLMTNAFISIIDDLSKYDVQVRAAVSSMCREAGLWSEWSQPIYVGFSR", "note": "[I89A]", "effect of a mutation on the interaction": "decreasing interaction"},
      {"variant": "MIIVAHVLLILLGATEILQADLLPDEKISLLPPVNFTIKVTGLAQVLLQWKPNPDQEQRNVNLEYQVKINAPKEDDYETAITESKCVTILHKGFSASVRTILQNDHSLLASSWASAELHAPPGSPGTSIVNLTCTTNTTEDNYSRLRSYQVSLHCTWLVGTDAPEDTQYFLYYRYGSWTEECQEYSKDTLGRNIACWFPRTFILSKGRDWLAVLVNGSSKHSAIRPFDQLFALHAIDQINPPLNVTAEIEGTRLSIQWEKPVSAFPIHCFDYEVKIHNTRNGYLQIEKLMTNAFISIIDDLSKYDVQVRAAVSSMCREAGLWSEWSQPIYVGFSR", "note": "[R80A]", "effect of a mutation on the interaction": "decreasing interaction"}
    ]}
  ]
}
